From patent US20260070974A1 (NONA BIOSCIENCES SUZHOU, published 2026)

Columns and labels:
[1] = target: T1, human Siglec-3-his protein (Acrobiosystems, Cat CD3-H5226) (human, UniProt P20138 18-259); experiment: ELISA on coated human Siglec-3-his, antibody at 100 nM and 10 nM, goat anti-human IgG-HRP, OD450
T1 construct: Bought protein; not shown: his tag
Method: (§1) Human Siglec-15 ECD-his protein (Acrobiosystems, Cat SG5-H52H3), human Siglec-2-his protein (Acrobiosystems, Cat CD2-H52H8), human Siglec-4a-his protein (Acrobiosystems, Cat MAG-H52H8), human Siglec-3-his protein (Acrobiosystems, Cat CD3-H5226), human Siglec-10-his protein (Acrobiosystems, Cat SIO-H52H9), and human PD-L1/B7-H1-his protein (Acrobiosystems, Cat PD1-H5229), each at 1 μg/mL and dissolved in PBS, were each added to an ELISA plate at 100 μL/well for coating and the plate was incubated overnight at 4° C. The ELISA plate was then blocked with PBST (PBS+0.05% Tween 20) containing 2% BSA at 200 μL/well and incubated at 37° C. for 1 h. The ELISA plate was washed 4 times with PBST. The anti-Siglec-15 antibody diluted in a gradient (concentrations: 100 nM and 10 nM) was added to the ELISA plate at 100 μL/well and the plate was incubated at 37° C. for 1 h. The ELISA plate was washed 4 times with PBST. The goat anti-human IgG (H+L)-HRP (1:5000, Jackson, Cat 109-035-088) was added at 100 μL/well and the plate was incubated at 37° C. for 1 h. The ELISA plate was washed 4 times with PBST. The TMB substrate (Biopanda, Cat TMB-S-003) was added at 100 μL/well, and the plate was incubated at room temperature for 5 min, and then the stop buffer (Solarbio, Cat #: C1058) was added at 100 μL/well to stop the reaction.

[2] = target: T2, human Siglec-2-his protein (Acrobiosystems, Cat CD2-H52H8) (human, UniProt P20273 20-687); experiment: ELISA on coated human Siglec-2-his, antibody at 100 nM and 10 nM, goat anti-human IgG-HRP, OD450
T2 construct: Bought protein; not shown: his tag
T2 sequence (looked up): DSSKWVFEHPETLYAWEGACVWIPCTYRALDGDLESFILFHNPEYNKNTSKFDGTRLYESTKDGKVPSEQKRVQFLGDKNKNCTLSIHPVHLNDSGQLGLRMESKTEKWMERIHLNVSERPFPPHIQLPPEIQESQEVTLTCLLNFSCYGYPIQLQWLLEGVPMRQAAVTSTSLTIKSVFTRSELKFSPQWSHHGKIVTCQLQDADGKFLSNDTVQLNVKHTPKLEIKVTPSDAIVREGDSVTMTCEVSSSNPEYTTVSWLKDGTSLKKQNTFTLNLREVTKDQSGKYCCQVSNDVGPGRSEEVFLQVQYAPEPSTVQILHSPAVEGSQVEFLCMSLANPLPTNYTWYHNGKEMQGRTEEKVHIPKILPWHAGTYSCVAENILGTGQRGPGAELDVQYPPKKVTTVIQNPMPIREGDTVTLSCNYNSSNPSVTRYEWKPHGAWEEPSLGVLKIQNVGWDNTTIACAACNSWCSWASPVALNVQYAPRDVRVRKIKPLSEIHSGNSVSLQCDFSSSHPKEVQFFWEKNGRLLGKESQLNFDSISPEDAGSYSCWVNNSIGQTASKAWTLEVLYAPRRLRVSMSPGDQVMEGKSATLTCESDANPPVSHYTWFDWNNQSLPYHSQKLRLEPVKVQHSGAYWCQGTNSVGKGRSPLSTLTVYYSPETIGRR
Method: as §1

T1 sequence (P20138 18-259 limits assumed): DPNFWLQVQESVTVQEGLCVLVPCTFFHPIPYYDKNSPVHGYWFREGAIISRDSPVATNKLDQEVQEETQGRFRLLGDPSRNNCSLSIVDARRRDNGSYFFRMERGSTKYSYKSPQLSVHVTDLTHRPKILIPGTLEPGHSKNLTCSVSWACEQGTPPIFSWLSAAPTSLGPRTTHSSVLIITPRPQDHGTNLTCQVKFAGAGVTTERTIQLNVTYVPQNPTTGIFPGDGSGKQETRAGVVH

Row | Binder | binding result [1] | binding result [2]
1 | PR301285 (antibody, human IgG1, kappa, V domains shown) VH: QVQLQESGPGLVKPSETLSLTCTVSGGSMISYYWSWLRQPPGKGLEWIGYIYYSGNTNYNPSLKSRITIAVDTSKNQFSLKLNSVTAADTAVYYCARERELHPYYFDYWGQGTLVTVSS VL: DIQLTQSPSFLSASVGDRVTITCRASQGIDNYLAWYQQKPGKAPKVLIYAASTLQSGVPSRFSGSGSGTEFTLTISSLQPEDFATYYCQQLNSYPLTFGGGTKVEIKR | no binding (tested: 100 nM) | no binding (tested: 100 nM)
2 | PR300066 (Tab) (antibody, human IgG1, kappa, V domains shown, variable region from clone 5G12 of WO 2018/057735A1, on human IgG1/kappa constant regions; also called 5G12) VH: QVQLQQPGAELVKPGASVKMSCKASGYTFTSYWITWVIQRPGQGLEWIGDIYCGSDTMHYNEKFKNKATLTVDTSSSTAYMQLSSLTSEDSAVYYCARWWDYGSSYDYFDYWGQGTTLTVSS VL: DIKMTQSPSSMYASLGERVTITCKASQDINSYLSWFQQKPGKSPKTLIYRANRLVDGVPSRFSGSGSGQDYSLTISSLEYEDMGIYYCLQYDEFPYTFGGGTKLEIKR | no binding (tested: 100 nM) | no binding (tested: 100 nM)
3 | PR301289 (antibody, human IgG1, kappa, V domains shown, Parent of the PTM variants PR301289-1 and -2) VH: QVQLVQSGAEVKKPGASVKVSCRASGYTFTSYDINWVRQATGQGLEWMGWMNPHSGDTGYAQNFQGRVTMTWNTSISTAYMELSSLRSEDTAVYYCARRRVGVYYYGMDVWGQGTTVTVSS VL: ENVLTQSPGTLSLSPGERATLSCRASQSVSSSYFGWYQQKPGQAPRLLIYGASSRATGIPDRFSGSGSGTDFTLTISRLEPEDFAVYYCQQYGSSPITFGQGTRLEIKR | no binding (tested: 100 nM) | no binding (tested: 100 nM)
4 | PR301286 (antibody, human IgG1, kappa, V domains shown, Parent of the PTM variants PR301286-1, -3, -5, -6, -7) VH: QVQLVESGGGVVQPGKSLRLSCAASGFTFSSYGMHWVRQAPGKGLEWVAVIWIDGSNRYYAASVKGRFTISRDNSKNTLYLQMNSLRAEDTAVYYCTRGYGDYAYVMDVWGQGASVTVSS VL: DIVMTQSPLSLPVTPGEPASISCRSSQSLLPGNGYNYLDWYLQKPGQSPQLLIYLGSNRASGVPDRFSGSGSGTDFTLKISRVEAEDVGIYYCMQALQSPLTFGGGTKVEIKR | no binding (tested: 100 nM) | no binding (tested: 100 nM)
